From patent US20210154314A1

Experiments:
Her2 (ErbB2) [1] = target: Her2 (ErbB2) (UniProt P04626); assay: ligand binding assay ('Binding Activity'), format not described; lyophilized formula B4 after 37 C for 1 month
Her2 (ErbB2) [2] = target: Her2 (ErbB2) (UniProt P04626); assay: ligand binding assay ('Binding Activity'), format not described; lyophilized formula B2 after 25 C for 3 months
Her2 (ErbB2) [3] = target: Her2 (ErbB2) (UniProt P04626); assay: ligand binding assay ('Binding Activity'), format not described; lyophilized formula B6 after 37 C for 1 month
Her2 (ErbB2) [4] = target: Her2 (ErbB2) (UniProt P04626); assay: ligand binding assay ('Binding Activity'), format not described; lyophilized formula B4 after 4 C for 6 months
Her2 (ErbB2) [5] = target: Her2 (ErbB2) (UniProt P04626); assay: ligand binding assay ('Binding Activity'), format not described; lyophilized formula B6 after 25 C for 3 months
Her2 (ErbB2) [6] = target: Her2 (ErbB2) (UniProt P04626); assay: ligand binding assay ('Binding Activity'), format not described; lyophilized formula B4 after 25 C for 3 months
Her2 (ErbB2) [7] = target: Her2 (ErbB2) (UniProt P04626); assay: ligand binding assay ('Binding Activity'), format not described; lyophilized formula B2 after 37 C for 1 month
Her2 (ErbB2) [8] = target: Her2 (ErbB2) (UniProt P04626); assay: ligand binding assay ('Binding Activity'), format not described; lyophilized formula B2 after 4 C for 6 months
Her2 (ErbB2) [9] = target: Her2 (ErbB2) (UniProt P04626); assay: ligand binding assay ('Binding Activity'), format not described; lyophilized formula B6 after 4 C for 6 months

B1: recombinant humanized anti-Her2 monoclonal antibody-MMAE conjugate (RC48-vc-MMAE) (antibody, INN chains, looked up, V domains shown, not shown: a dimerising Fc or GST)
VH: EVQLVQSGAEVKKPGATVKISCKVSGYTFTDYYIHWVQQAPGKGLEWMGRVNPDHGDSYYNQKFKDKATITADKSTDTAYMELSSLRSEDTAVYFCARNYLFDHWGQGTLVTVSS
VL: DIQMTQSPSSVSASVGDRVTITCKASQDVGTAVAWYQQKPGKAPKLLIYWASIRHTGVPSRFSGSGSGTDFTLTISSLQPEDFATYYCHQFATYTFGGGTKVEIK
modifications: vedotin: mc-vc-PAB-MMAE payload
With B1 as the binder, how does the IC50 (Her2 (ErbB2) [1]) read?
The IC50 was 0.0126 nM.

What about the IC50 (Her2 (ErbB2) [2]) of the same binder?
Its IC50 is 0.0133 nM.

And the IC50 (Her2 (ErbB2) [3])?
The IC50 was 0.0148 nM.

And the IC50 (Her2 (ErbB2) [4])?
Its IC50 is 0.0122 nM.

What about the IC50 (Her2 (ErbB2) [5]) of the same binder?
Its IC50 is 0.0129 nM.

And the IC50 (Her2 (ErbB2) [6])?
The IC50 was 0.0127 nM.

And the IC50 (Her2 (ErbB2) [7])?
The IC50 was 0.0152 nM.

And the IC50 (Her2 (ErbB2) [8])?
The IC50 was 0.0132 nM.

What about the IC50 (Her2 (ErbB2) [9]) of the same binder?
Its IC50 is 0.0133 nM.
